In general, Km refers to the substrate concentration at which the rate is half of its maximum. One may read the kcat as the number of substrate molecules converted per active site and unit of time at saturation. Broadly, the kcat/Km is the turnover number divided by the Michaelis constant.

Km, kcat and kcat/Km data for three proteins are collected here from publication PMC7946891, “Versatility in acyltransferase activity completes chicoric acid biosynthesis in purple coneflower” (Nature Communications, 2021).

Substrate in data set [1]: CC(C)(COP(=O)(O)OP(=O)(O)OC[C@H]1O[C@@H](n2cnc3c(N)ncnc32)[C@H](O)[C@@H]1OP(=O)(O)O)[C@@H](O)C(=O)NCCC(=O)NCCSC(=O)/C=C/c1ccc(O)cc1
Kind of data set: UPLC-DAD endpoint assay, Michaelis-Menten. The format is biochemical, Echinacea purpurea. The settings on record: PBS pH 7.0, 30 °C.

Substrate in data set [2]: O=C(O)[C@]1(O)C[C@@H](O)[C@@H](O)[C@H](O)C1
Kind of data set: UPLC-DAD endpoint assay, Michaelis-Menten. The format is biochemical, Echinacea purpurea. Conditions: 50 μM caffeoyl CoA, PBS pH 7.0, 30 °C.

Substrate in data set [3]: COc1cc(/C=C/C(=O)SCCNC(=O)CCNC(=O)[C@H](O)C(C)(C)COP(=O)(O)OP(=O)(O)OC[C@H]2O[C@@H](n3cnc4c(N)ncnc43)[C@H](O)[C@@H]2OP(=O)(O)O)ccc1O
In words: UPLC-DAD endpoint assay, Michaelis-Menten. The format is biochemical, Echinacea purpurea. Conditions: PBS pH 7.0, 30 °C.

Substrate in data set [4]: CC(C)(COP(=O)(O)OP(=O)(O)OC[C@H]1O[C@@H](n2cnc3c(N)ncnc32)[C@H](O)[C@@H]1OP(=O)(O)O)[C@@H](O)C(=O)NCCC(=O)NCCSC(=O)/C=C/c1ccc(O)c(O)c1
Kind of data set: UPLC-DAD endpoint assay, Michaelis-Menten. The format is biochemical, Echinacea purpurea. The settings on record: PBS pH 7.0, 30 °C.

Substrate in data set [5]: O=C(O)C(O)C(O)C(=O)O
Kind of data set: purified protein, by the assay type. On the set-up: Michaelis-Menten kinetics of recombinant EpHTT, product quantified by UPLC-DAD. Conditions: pH 7.0; 16.0 °C.

Substrate in data set [6]: O=C(O)C(O)C(O)C(=O)O
Kind of data set: purified protein. Conditions: 50 μM caffeoyl CoA, PBS pH 7.0, 30 °C, pH 7.0.

Substrate in data set [7]: O=C(/C=C/c1ccc(O)c(O)c1)O[C@@H]1C[C@](O)(C(=O)O)C[C@@H](O)[C@H]1O
In words: purified protein. Conditions: 200 μM caftaric acid as acyl acceptor, 10 mM Na2HPO4, pH 4.0, 30 °C, pH 4.0.

Substrate in data set [8]: O=C(/C=C/c1ccc(O)c(O)c1)O[C@@H](C(=O)O)[C@@H](O)C(=O)O
In words: purified protein. The format is biochemical, Echinacea purpurea. Conditions: 200 μM chlorogenic acid as acyl donor, 10 mM Na2HPO4, pH 4.0, 30 °C.

Substrate in data set [9]: O=C(/C=C/c1ccc(O)c(O)c1)O[C@@H]1O[C@H](CO)[C@@H](O)[C@H](O)[C@H]1O
In words: purified protein. Conditions: 200 μM caftaric acid as acyl acceptor, 10 mM Na2HPO4, pH 4.0, 30 °C. The format is biochemical, Echinacea purpurea.

B1: EpHQT (Echinacea purpurea) (protein)
chain: MNITITKSSLIPPSETLPGSETRLWTSNLDLVVGRIHILTVYFYRPNGSSNFFDPNAMKQALADVLVSFYPMAGRLGRDESGRVVINCNGEGALFVEAEADSCLDDFGEFTPSPELRSLTPAVDYSGDVSSYPLFFAQVTHFKCGGVSLGCGVFHTLSDGLSSLHFINTWSDVARGLSVAIPPFIDRTLLRAREPPTPTHDHVEYHPPPTMTMLNTIQKPGPLSKSSTTMLKLTLDQLNTLKAKTKTEGGPSYSTYEILAAHIWRCACKARGLPDDQLTKLYVATDGRSRLSPHLPRGYLGNVVFTATPVATSGALTSDSLQNAAKLIHTTLTQMDNEYLRSAIDYLEIQPDLSALIRGPSYFASPNLNINAWSRLPVHDADFGWGRPVFMGPAIILYEGTVYVLPSPNNDRSVSLAVCLDAKEQPLFEKYLYEF
notes: full-length CDS, N-terminal 6xHis (pDEST17), E. coli BL21(DE3), Ni-NTA purified
As to B1, the Km in [1] (1 mM quinic acid) came to 70.547 ± 43.952 µM; in [2], 576.167 ± 72.176 µM; in [3] (1 mM quinic acid) it was 38.623 ± 14.588 µM; in [4] (1 mM quinic acid) it was 7.231 ± 1.577 µM. Also, the kcat in [1] (1 mM quinic acid) was determined as 0.060 ± 0.036 s⁻¹; in [2], 0.157 ± 0.007 s⁻¹; in [3] (1 mM quinic acid), 0.0007 ± 0.00009 s⁻¹; in data set [4] (1 mM quinic acid) it was 0.111 ± 0.005 s⁻¹.

B2: EpHTT (Echinacea purpurea) (protein)
chain: MKVVVRESTVVRPAEESPPRKLWNSSLDLTNLNGHTLVVYFYRPNGASDFFNTKLMKDTLSRMLVAFYPFAGRFKYDQHGRVETDCQGQGALFLEAESDGLIDDFGDFLPTLEYLKLIPAIDYSKGIDSFPLMVFQVTFFKCGGVSLGVGMHHHLVDGMSGLHFTNTWADMTRGLDITLPPFIDRTLLRPRDPPRPVFEHIEYQSDPTPLKVSLDETKTSFSMFKLTRNQLALLKEKAKEEGNKISYTTFEMFSAHVWKCVCKARGLPDDVETKLYLPVDGRARLQPPLPPGYFGNVIFDAAVIATAGDIKSKPIWYAAGKIHDSLARMNNDYLRSAIDYLEQHNCKKPYVDYNTNLRINSWARLPIHDADFGWGRPIFMGRTGLPSVGRVYVLPSAMDDGSLSIILGLEAEEMKVFGNLLYAI
notes: as for B1
On to B2, for which the Km in [5] is 458.600 ± 80.431 µM; in data set [1] (0.5 mM tartaric acid), 22.027 ± 3.818 µM; in data set [3] (0.5 mM tartaric acid), 48.010 ± 11.329 µM; in data set [4] (0.5 mM tartaric acid), 34.760 ± 6.832 µM; in [6], 841.967 ± 35.474 µM. Further, the kcat in data set [5] came out at 0.176 ± 0.052 s⁻¹; in data set [1] (0.5 mM tartaric acid) it was 0.007 ± 0.001 s⁻¹; in [3] (0.5 mM tartaric acid), 0.122 ± 0.011 s⁻¹; in data set [4] (0.5 mM tartaric acid) it was 0.588 ± 0.064 s⁻¹; in data set [6] it was 0.685 ± 0.016 s⁻¹. The kcat/Km in data set [5] was 390 ± 122 M⁻¹ s⁻¹.

B3: EpCAS (Echinacea purpurea) (protein)
chain: ASTIVKNLPGFHGDLPCTIETGYIGVGADDEVQFFYYFVESERDPSRDPLIYYLTGGPGTTALYPFLFQIGPLSINYDNSTWEKLTLELNPYSWSKAANVLFVDLPAGTGFSYGTTYEATKSSDSISAQQGYEFLIKWLEENPRFLNNSLYIAGTSYMGIVVPVVTLEVYKGNERGDQPQLNVKGYAISSPLTDKFSDFNSRFEFAHRAALISDDIYKSAKNNCGGNYIYNAVENTECARSLQRFEECTSRINEANILDPLCDEDSQDPVCGEVGDKYLKYYGNDKEVQKALGVREGTIEEFVKTNQSIHYLINKEDQDCYSYDIFSTIIYHKSLVSRNCQALILSADHDFTFPYVGVEQWITSLNLPLESPWNPWFVNNQVAGYRLKYARNGYSLTYATVKGAGHSIALYKPRETWVILDEWLASNSYLSDS
notes: full-length cDNA, C-terminal 6xHis (pESC-His), S. cerevisiae BY4741, Ni-NTA purified; vacuolar targeting peptide Met1-His24
For the protein B3, the Km in [7] was determined as 83.910 ± 7.811 µM; in [8], 53.910 ± 0.613 µM; in [9], 121.400 ± 12.163 µM. The figures for the kcat in data set [7], in [8] and in data set [9] were 0.005 ± 0.0003 s⁻¹, 0.005 ± 0.00002 s⁻¹ and 1.09e-05 ± 8.7e-07 s⁻¹, respectively.
